Reference: IntAct's records for PubMed 20959446

B1: CMRF35-like molecule 6 (Homo sapiens), Q08708 (parent)
chain: MTARAWASWRSSALLLLLVPGYFPLSHPMTVAGPVGGSLSVQCRYEKEHRTLNKFWCRPPQILRCDKIVETKGSAGKRNGRVSIRDSPANLSFTVTLENLTEEDAGTYWCGVDTPWLRDFHDPIVEVEVSVFPAGTTTASSPQSSMGTSGPPTKLPVHTWPSVTRKDSPEPSPHPGSLFSNVRFLLLVLLELPLLLSMLGAVLWVNRPQRSSRSRQNWPKGENQ
partner: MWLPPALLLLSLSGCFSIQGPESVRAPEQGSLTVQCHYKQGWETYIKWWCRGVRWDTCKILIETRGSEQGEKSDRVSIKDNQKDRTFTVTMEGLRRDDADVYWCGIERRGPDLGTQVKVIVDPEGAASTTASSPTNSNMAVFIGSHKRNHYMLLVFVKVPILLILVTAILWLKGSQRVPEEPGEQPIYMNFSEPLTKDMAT
B2: CMRF35-like molecule 7 (Homo sapiens), A8K4G0 (parent)
chain: B1 partner
partner: B1 chain
B3: CMRF35-like molecule 6 (Homo sapiens), Q08708 (parent)
chain: B1 chain

Variants of: B1
Details: with clm7_human CD300LB, A8K4G0

effect of a mutation on the interaction | Variant
with no effect | MTARAWASWRSSALLLLLVPGYFPLSHPMTVAGPVGGSLSVQCRYEKEHRTLNKFWCRPPQILRCDKIVETKGSAGKRNGRVSIRDSPANLSFTVTLENLTEEDAGTYWCGVDTPWLRDFHDPIVEVEVSVFPAGTTTASSPQSSMGTSGPPTKLPVHTWPSVTRKDSPEPSPHPGSLFSNVRFLLLVLLVLPLLLSMLGAVLWVNRPQRSSRSRQNWPKGENQ [E191V]

Variants of: B2
Details: with clm6_human CD300C, Q08708

Variant | effect of a mutation on the interaction
MWLPPALLLLSLSGCFSIQGPESVRAPEQGSLTVQCHYKQGWETYIKWWCRGVRWDTCKILISTRGSEQGEKSDRVSIKDNQKDRTFTVTMEGLRRDDADVYWCGIERRGPDLGTQVKVIVDPEGAASTTASSPTNSNMAVFIGSHKRNHYMLLVFVKVPILLILVTAILWLKGSQRVPEEPGEQPIYMNFSEPLTKDMAT [E63S] | with no effect
MWLPPALLLLSLSGCFSIQGPESVRAPEQGSLTVQCHYKQGWETYIKWWGRGVRWDTCKILIETRGSEQGEKSDRVSIKDNQKDRTFTVTMEGLRRDDADVYWCGIERRGPDLGTQVKVIVDPEGAASTTASSPTNSNMAVFIGSHKRNHYMLLVFVKVPILLILVTAILWLKGSQRVPEEPGEQPIYMNFSEPLTKDMAT [C50G] | with no effect
MWLPPALLLLSLSGCFSIQGPESVRAPEQGSLTVQCHYKQGWETYIKWWCRGVRGDTCKILIETRGSEQGEKSDRVSIKDNQKDRTFTVTMEGLRRDDADVYWCGIERRGPDLGTQVKVIVDPEGAASTTASSPTNSNMAVFIGSHKRNHYMLLVFVKVPILLILVTAILWLKGSQRVPEEPGEQPIYMNFSEPLTKDMAT [W55G] | with no effect
MWLPPALLLLSLSGCFSIQGPESVRAPEQGSLTVQCHYKQGWETYIKWWCRGVRWDTCKILIETRGSEQGEKSDRVSIKDNQKDRTFTVTMEGLRRDDADVYGCGIERRGPDLGTQVKVIVDPEGAASTTASSPTNSNMAVFIGSHKRNHYMLLVFVKVPILLILVTAILWLKGSQRVPEEPGEQPIYMNFSEPLTKDMAT [W103G] | with no effect

Results, then the variant that gave them:

effect of a mutation on the interaction | Variant
with no effect | MWLPPALLLLSLSGCFSIQGPESVRAPEQGSLTVQCHYKQGWETYIKWWCRGVRWDTCKILIETRGSEQGEKSDRVSIKDNQKDRTFTVTMEGLRRDDADVYWCGIERRGPDLGTQVKVIVDPEGAASTTASSPTNSNMAVFIGSHKRNHYMLLVFVLVPILLILVTAILWLKGSQRVPEEPGEQPIYMNFSEPLTKDMAT [K158L]
with no effect | MWLPPALLLLSLSGCFSIQGPESVRAPEQGSLTVQCHYKQGWETYIKWWCRGVRWDTCKILIETRGSEQGEKSDRVSIKDNQKDRTFTVTMEGLRRDDADVYWCGIERRGPMLGTQVKVIVDPEGAASTTASSPTNSNMAVFIGSHKRNHYMLLVFVKVPILLILVTAILWLKGSQRVPEEPGEQPIYMNFSEPLTKDMAT [D112M]

Variants of: B3
Details: with fcerg_human FCER1G

effect of a mutation on the interaction | Variant
with no effect | MTARAWASWRSSALLLLLVPGYFPLSHPMTVAGPVGGSLSVQCRYEKEHRTLNKFWCRPPQILRCDKIVETKGSAGKRNGRVSIRDSPANLSFTVTLENLTEEDAGTYWCGVDTPWLRDFHDPIVEVEVSVFPAGTTTASSPQSSMGTSGPPTKLPVHTWPSVTRKDSPEPSPHPGSLFSNVRFLLLVLLVLPLLLSMLGAVLWVNRPQRSSRSRQNWPKGENQ [E191V]
